Experimental findings from the supplement of paper PMC9170038 are described below.

The test system of the data set is MS2 coat protein. The experiment in a line: apparent KD of MS2 coat protein; designed switch direction (-1 OFF switch, 1 ON switch): -1; higher = weaker reporter binding. Put shortly: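 Designed RNA switches sharing common flanks were transcribed on Illumina chips by stalled E. coli RNA polymerase. They were titrated with SNAP-549-labelled MS2 coat protein, from 0.7 or 1.5 nM doubling to 3 µM, in Tris-HCl pH 7.5 buffer with KCl, MgCl2, BSA, DTT, tRNA and Tween-20. Titrations ran without input, with 200 uM small-molecule ligand, or with an oligonucleotide input. The apparent KD of each design is the median over its clusters, after curve-fitting of normalised cluster fluorescence.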

[1] abbreviates: Eterna round: R95, input ligand: microRNA oligo, concentration not stated.
The mark [2] stands for this setting: input ligand: microRNA oligo, concentration not stated.
Setting [3] is: Eterna round: R95, input ligand: FMN 200 uM.
[4] abbreviates: Eterna round: R95, input ligand: none.

As to “UUUCCGGCGCGGGUUUUUUACAUGAGGAUCACCCAUGUCCUCUGCUUGUCUUGUCUUGGGCUUUUUUUGGGUUCGGG [-19, -39.7 kcal, A 8%] (Eterna round: R97, puzzle: Sensor, turn-off variant 1)”, the “apparent KD of MS2 coat protein” value (input ligand: FMN 200 uM) stood at 697 nM.
For the sequence “UUUGUUGUUGUGAGGAUAUCGUUGAUUUUUUGAAACGAGAAGGCACAUGAGGAUCACCCAUGUUUGUUGUUGGU [JR_BMOE4_Sub058] (puzzle: Brourd's mod of Exclusion 4)”, under setting [1], the “apparent KD of MS2 coat protein” value was determined as 58.8 nM.
Take “UUUGUUUAUGUAGGAUAUGCCUGGCGUGCCUUUGCAGAAGGACAUGAGGAUCACCCAUGUAUUGCGGUCUGCGUUCAGAUCGCA [salish99_ExNG1_r4_038] (Eterna round: R96, puzzle: Exclusion NG 1)”: the “apparent KD of MS2 coat protein” value is, setting by setting: (input ligand: FMN 200 uM) 43.2 nM; under setting [2], 30.2 nM; (input ligand: none) 29.4 nM.
As for “UUUUAACAUGAGGAUCACCCAUGUGAGGAUAUCGAAAUUUAUAUUAAUAUUAAUAUAUCGAGAAGGCACAUUUU [JMF 24] (puzzle: Exclusion 1)”, under setting [1], the “apparent KD of MS2 coat protein” value came to 74.9 nM.
Turning to “UUUUAACAUGAGGAUCACCCAUGUGAGGAUAUCGAAAUUUAUAUUAAUAUUUUUAUUUCGAGAAGGCACAUUUU [JMF 73] (puzzle: Exclusion 1)”, the “apparent KD of MS2 coat protein” value under setting [1] stood at 138 nM.
Turning to “UUUUAACAUGAGGAUCACCCAUGUGAGGAUAUCGUAAUUUAUAUUAAUAUUAAUAAAACGAGAAGGCACAUUUU [JMF 5] (puzzle: Exclusion 1)”, the “apparent KD of MS2 coat protein” value is, setting by setting: under setting [3], 138 nM; under setting [1], 143 nM; under setting [4], 85.2 nM.
For “UUUUACAUAGGAUAUAGUCUUUUUUACAUGAGGAUCACCCAUGUCUCUCUUUUUUUUUUUCUAGAAGGAUGUUUUU [JR_E5_Sub017] (puzzle: Exclusion 5)”, the “apparent KD of MS2 coat protein” value under setting [1] stood at 16.8 nM.
For “UUUUAGAGAGGAUAUAUAUUGUGAAACAUGAGGAUCACCCAUGUAAUAAUAUGGAUGAAAAUAGAAGGCUCAUUUA [Mat - Exclusion 5 - JL mod - D7] (puzzle: Exclusion 5)”, the “apparent KD of MS2 coat protein” value runs as follows: under setting [3], 52.1 nM; under setting [1], 62.7 nM; under setting [4], 73.6 nM.
Turning to “UUUUAGAGAGGAUAUAUGAUGUGAAACAUGAGGAUCACCCAUGUAAUAUUAUGGAUGUAAAUAGAAGGCUCAUUUA [JL-ex5-3.05] (puzzle: Exclusion 5)”, the “apparent KD of MS2 coat protein” value was 38.8 nM under setting [3], 63.3 nM under setting [1] and 69.1 nM under setting [4].
Turning to “UUUUAGUCAGGAUAUACAUGAGGAUCACCCAUGUAAACUUUUAGUUUAAUUUGAAUGUGUAGAAGGGACAUUUU [Ex3 #44] (Eterna round: R97, puzzle: Exclusion 3)”, the “apparent KD of MS2 coat protein” value reads like this: (input ligand: FMN 200 uM) 34.3 nM; (input ligand: none) 25.4 nM.
For “UUUUAUAGAGGAUAUGCGUGAAUAUAUAUUCAUGGAAAUUUACAUGAGGAUCACCCAUGUAGAAGGCUGUGUUU [LRO-Excl2-19-mod 090 by JR] (Eterna round: R97, puzzle: Exclusion 2)” the same measures were 14.1 nM and 14.5 nM.
In the case of “UUUUCCUGGCAAGGAUAUCCUGUGCGGUUCCGGCUCGUGUCUGUUACAUGAGGAUCACCCAUGUGGGAGAAGGUGCCUGUGGUU [Design 89] (Eterna round: R96, puzzle: Exclusion NG 2)”, the “apparent KD of MS2 coat protein” value by setting is: (input ligand: FMN 200 uM) 272 nM; under setting [2], 34.3 nM; (input ligand: none) 41.7 nM.
For “UUUUGAUGAGGAUAUCGAGGUUAGUACAUGAGGAUCACCCAUGUUAUCCAGGUGUCGGUUCGAGAAGGUAUUGGAC [LRO-Ex5-16] (puzzle: Exclusion 5)”, the “apparent KD of MS2 coat protein” value under setting [1] is 16 nM.
Turning to “UUUUGGCAUGUAGGAUAUGGGUCCGAUUAGGAUUUAGAAGGACAUGAGGAUCACCCAUGUGCAUUUAAUUGGUCUUUACCUUUU [EXclNG1-LROPPY12] (Eterna round: R96, puzzle: Exclusion NG 1)”, the “apparent KD of MS2 coat protein” value is, setting by setting: (input ligand: FMN 200 uM) 130 nM; under setting [2], 82.1 nM; (input ligand: none) 82.5 nM.
